Laboratory results as given in US20210380703A1 (RIGEL PHARMACEUTICALS, published 2021).
Changes are numbered by the printed parent chain.

B1: 368_H06 (antibody, V domains shown)
VH: EVQLLESGGGLVQPGGSLRLSCAASGFTFDSYGMHWVRQAPGKGLEWVANINYNGGYKSYADSVKGRFTISRDNSKNTLYLQMNSLRAEDTAVYYCARGATWHDTHLDYWGQGTLVTVSS
VL: DIQMTQSPSSLSASVGDRVTITCRASQSILTYVNWYQQKPGKAPKLLIYATTSRASGVPSRFSGSGSGTDFTLTISSLQPEDFATYYCQQSYDNPLTFGGGTKVEIK
notes: VH/VL only
B2: 370_C07 (antibody, V domains shown)
VH: B1 VH with D30S, G33S, H35N
VL: B1 VL with T31S, V33L, T51A, A55H, D93E, N94S
notes: VH/VL only
B3: 370_G08 (antibody, V domains shown)
VH: B1 VH with D30S, S31D, G33S, H35N, N50G, K58T, S59G
VL: B1 VL with V33L, L47V, T51A, D93E, N94S
notes: VH/VL only
B4: 371_E12 (antibody, V domains shown)
VH: B1 VH with G33S, H35N, A49S, N50G, G55S
VL: B1 VL with T31S, V33L, T51A, R54L, N94T
notes: VH/VL only
B5: 370_C06 (antibody, V domains shown)
VH: B1 VH with D30S, G33S, H35N
VL: B1 VL with T51A, T52S, R54L, A55Q, D93S, N94T
notes: VH/VL only
B6: 369_H08 (antibody, V domains shown)
VH: B1 VH with D30S, G33S, H35N, N50G, G55S
VL: B1 VL with T31S, L47V, T51A, R54L, D93E, N94S
notes: VH/VL only
B7: 368_H11 (antibody, V domains shown)
VH: B1 VH with N50S, K58T
VL: B1 VL with T31S, V33L, T51A, Y92D, N94T
notes: VH/VL only
B8: 369_C12 (antibody, V domains shown)
VH: B1 VH with D30S, H35N, S59G
VL: B1 VL with V33L, T51A, A55H, N94T
notes: VH/VL only
B9: 371_F09 (antibody, V domains shown)
VH: B1 VH with D30S, G33S, H35N, N50G, K58T
VL: B1 VL with V33L, T51A
notes: VH/VL only
B10: 370_H04 (antibody, V domains shown)
VH: B1 VH with D30S, G33S, H35N, A49S, K58T, S59G
VL: B1 VL with T31S, T51A, N94L
notes: VH/VL only
B11: 369_H12 (antibody, V domains shown)
VH: B1 VH with D30S, G33S, H35N, N50G
VL: B1 VL with L30V, L47V, T51A, N94S
notes: VH/VL only
B12: 371_C06 (antibody, V domains shown)
VH: B1 VH with D30S, G33S, H35N, A49S, N50S, K58T
VL: B1 VL with L30S, T31S, V33L, T51V, N94L
notes: VH/VL only
B13: 369_E08 (antibody, V domains shown)
VH: B1 VH with D30S, G33S, H35N, N50S, G55S, K58T, S59G
VL: B1 VL with T51A, N94S
notes: VH/VL only
B14: 369_F05 (antibody, V domains shown)
VH: B1 VH with D30S, G33S, H35N, A49S, N50G
VL: B1 VL with L30S, T31S, V33L, T51A, T52S, R54L, A55Q, S91G, N94S
notes: VH/VL only
B15: 371_E08 (antibody, V domains shown)
VH: B1 VH with D30S, G33S, H35N, A49S, G55S
VL: B1 VL with L30V, T31S, L47V, T51A, A55H, N94L
notes: VH/VL only
B16: 371_C07 (antibody, V domains shown)
VH: B1 VH with H35N, A49S, K58T, S59G, H106A
VL: B1 VL with T31S, V33L, T51A, R54L, N94T
notes: VH/VL only
B17: 370_D03 (antibody, V domains shown)
VH: B1 VH with D30S, G33S, H35N, N50S, K58T
VL: B1 VL with L30I, V33L, T51A, N94L
notes: VH/VL only
B18: 369_D08 (antibody, V domains shown)
VH: B1 VH with D30S, S31D, G33S, H35N, N50S, S59G
VL: B1 VL with V33L, T51A, N94T
notes: VH/VL only

Assays:
Human ACVR2A = biological target: T1, Human ACVR2A (human, UniProt P27037 20-135, limits assumed); test: ELISA
T1 construct: also called activin receptor, type II A
T1 sequence (P27037 20-135 limits assumed): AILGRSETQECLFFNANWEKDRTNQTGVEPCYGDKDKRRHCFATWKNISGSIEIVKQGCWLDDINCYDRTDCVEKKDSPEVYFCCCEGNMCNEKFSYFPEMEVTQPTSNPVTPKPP
Protocol: (§1) The binding of ACVR2A-specific monoclonal antibodies to human ACVR2A, mouse ACVR2A, biotinylated goat anti-human kappa light chain (positive control) and human Fc (negative control) were determined by ELISA.

Mouse ACVR2A = Mouse ACVR2A (mouse, UniProt P27038 20-135, limits assumed); test: ELISA
Mouse ACVR2A, sequence (P27038 20-135 limits assumed): as the sequence (P27037 20-135 limits assumed) above, with K20R, V73I counted along it
Protocol: as §1

Goat anti-Human Kappa = biological target: T2, Goat anti-Human Kappa; test: ELISA; positive control
T2 construct: Positive control; also called biotinylated goat anti-human kappa light chain
Protocol: as §1
Also: test concentration or dose not given here.

| Binder | optical density (Human ACVR2A) [OD] | optical density (Mouse ACVR2A) [OD] | optical density (Goat anti-Human Kappa) [OD] |
| --- | --- | --- | --- |
| B1 | 2.35 | 2.65 | 3.61 |
| B2 | 3.35 | 3.37 | 3.3 |
| B3 | 3.21 | 3.33 | 3.56 |
| B4 | 3.09 | 2.99 | 3.62 |
| B5 | 3.14 | 3.41 | 3.55 |
| B6 | 3.16 | 3.23 | 3.56 |
| B7 | 1.95 | 2.13 | 3.51 |
| B8 | 3.43 | 3.45 | 3.74 |
| B9 | 3.37 | 3.57 | 3.6 |
| B10 | 3.48 | 3.56 | 3.62 |
| B11 | 3.46 | 3.42 | 3.65 |
| B12 | 2.49 | 3.01 | 3.44 |
| B13 | 1.03 | 1.23 | 1.12 |
| B14 | 0.796 | 0.931 | 3.46 |
| B15 | 2.11 | 2.27 | 2.64 |
| B16 | 1.39 | 1.45 | 3.36 |
| B17 | 3.13 | 3.25 | 3.58 |
| B18 | 2.94 | 3.13 | 3.06 |
